Data on 1 molecule can be found in PMC7795263, “Chaperone-Assisted Mitotic Actin Remodeling by BAG3 and HSPB8 Involves the Deacetylase HDAC6 and Its Substrate Cortactin” (International Journal of Molecular Sciences, 2020).

This assay has as its target T1, myc-cortactin (UniProt Q60598 1-546).
T1 construct: cortactin, myc-tagged plasmid, gift from Dr Zhan (Holland Laboratory, American Red Cross); human cortactin would be Q14247; The PLA used an anti-cortactin antibody, which may also detect endogenous human cortactin of HeLa cells; source: HeLa (parental), transfected (Lipofectamine 2000), in fixed cells
As to the kind of experiment: proximity ligation; Duolink in situ PLA with anti-GFP and anti-cortactin antibodies in fixed HeLa cells cotransfected with GFP-HDAC6 and myc-cortactin; asynchronous or synchronized in mitosis (double thymidine block, release 8-9 h); siCtl or siBAG3; PLA foci per cell counted by confocal microscopy. Particulars: partners not purified.

T1 sequence (Q60598 whole entry): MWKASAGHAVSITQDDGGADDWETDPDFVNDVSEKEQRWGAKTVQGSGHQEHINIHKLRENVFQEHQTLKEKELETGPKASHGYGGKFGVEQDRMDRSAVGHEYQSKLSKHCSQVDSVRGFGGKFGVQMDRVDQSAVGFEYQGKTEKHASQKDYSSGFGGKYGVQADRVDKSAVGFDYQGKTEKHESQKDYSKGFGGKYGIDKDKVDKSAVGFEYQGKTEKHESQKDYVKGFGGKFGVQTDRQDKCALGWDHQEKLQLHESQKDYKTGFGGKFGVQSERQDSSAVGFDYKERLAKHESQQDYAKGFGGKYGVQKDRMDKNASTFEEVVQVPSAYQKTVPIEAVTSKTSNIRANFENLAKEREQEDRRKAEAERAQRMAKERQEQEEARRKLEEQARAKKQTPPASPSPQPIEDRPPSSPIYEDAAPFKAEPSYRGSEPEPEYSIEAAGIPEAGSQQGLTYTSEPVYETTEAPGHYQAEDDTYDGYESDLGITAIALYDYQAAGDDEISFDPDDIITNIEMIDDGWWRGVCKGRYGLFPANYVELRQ

B1: GFP-HDAC6 (histone deacetylase 6, WT) (enzyme, UniProt Q9UBN7 1-1215, looked up)
chain: MTSTGQDSTTTRQRRSRQNPQSPPQDSSVTSKRNIKKGAVPRSIPNLAEVKKKGKMKKLGQAMEEDLIVGLQGMDLNLEAEALAGTGLVLDEQLNEFHCLWDDSFPEGPERLHAIKEQLIQEGLLDRCVSFQARFAEKEELMLVHSLEYIDLMETTQYMNEGELRVLADTYDSVYLHPNSYSCACLASGSVLRLVDAVLGAEIRNGMAIIRPPGHHAQHSLMDGYCMFNHVAVAARYAQQKHRIRRVLIVDWDVHHGQGTQFTFDQDPSVLYFSIHRYEQGRFWPHLKASNWSTTGFGQGQGYTINVPWNQVGMRDADYIAAFLHVLLPVALEFQPQLVLVAAGFDALQGDPKGEMAATPAGFAQLTHLLMGLAGGKLILSLEGGYNLRALAEGVSASLHTLLGDPCPMLESPGAPCRSAQASVSCALEALEPFWEVLVRSTETVERDNMEEDNVEESEEEGPWEPPVLPILTWPVLQSRTGLVYDQNMMNHCNLWDSHHPEVPQRILRIMCRLEELGLAGRCLTLTPRPATEAELLTCHSAEYVGHLRATEKMKTRELHRESSNFDSIYICPSTFACAQLATGAACRLVEAVLSGEVLNGAAVVRPPGHHAEQDAACGFCFFNSVAVAARHAQTISGHALRILIVDWDVHHGNGTQHMFEDDPSVLYVSLHRYDHGTFFPMGDEGASSQIGRAAGTGFTVNVAWNGPRMGDADYLAAWHRLVLPIAYEFNPELVLVSAGFDAARGDPLGGCQVSPEGYAHLTHLLMGLASGRIILILEGGYNLTSISESMAACTRSLLGDPPPLLTLPRPPLSGALASITETIQVHRRYWRSLRVMKVEDREGPSSSKLVTKKAPQPAKPRLAERMTTREKKVLEAGMGKVTSASFGEESTPGQTNSETAVVALTQDQPSEAATGGATLAQTISEAAIGGAMLGQTTSEEAVGGATPDQTTSEETVGGAILDQTTSEDAVGGATLGQTTSEEAVGGATLAQTTSEAAMEGATLDQTTSEEAPGGTELIQTPLASSTDHQTPPTSPVQGTTPQISPSTLIGSLRTLELGSESQGASESQAPGEENLLGEAAGGQDMADSMLMQGSRGLTDQAIFYAVTPLPWCPHLVAVCPIPAAGLDVTQPCGDCGTIQENWVCLSCYQVYCGRYINGHMLQHHGNSGHPLVLSYIDLSAWCYYCQAYVHHQALLDVKNIAHQNKFGEDMPHPH
notes: histone deacetylase 6 (HDAC6), wild type, expressed from peGFP.N1-HDAC6 WT (Addgene 36188); The pEGFP-N1 vector usually places GFP at the C-terminus of the insert (surmised); The Addgene 36188 insert is recalled to be human HDAC6; also called peGFP.N1-HDAC6 WT; source: HeLa (parental), transfected (Lipofectamine 2000), in fixed cells
As for B1, the “fold change of PLA foci per cell, siBAG3 mitotic cells against siCtl mitotic cells” value is approximately 2 fold.
